Measurements from IntAct's records for PubMed 25487150.

Legend:
pp11_schpo dis2 [1] = target: pp11_schpo dis2 (UniProt P13681)
pp11_schpo dis2 [2] = target: pp11_schpo dis2 (UniProt P13681); remark: listed apart in the source
pp1g_human PPP1CC = pp1g_human PPP1CC (UniProt P36873)
pp1a_human PPP1CA = pp1a_human PPP1CA (UniProt P62136)
pp1b_human PPP1CB = pp1b_human PPP1CB (UniProt P62140)
Sequence of pp1b_human PPP1CB (P62140 whole entry): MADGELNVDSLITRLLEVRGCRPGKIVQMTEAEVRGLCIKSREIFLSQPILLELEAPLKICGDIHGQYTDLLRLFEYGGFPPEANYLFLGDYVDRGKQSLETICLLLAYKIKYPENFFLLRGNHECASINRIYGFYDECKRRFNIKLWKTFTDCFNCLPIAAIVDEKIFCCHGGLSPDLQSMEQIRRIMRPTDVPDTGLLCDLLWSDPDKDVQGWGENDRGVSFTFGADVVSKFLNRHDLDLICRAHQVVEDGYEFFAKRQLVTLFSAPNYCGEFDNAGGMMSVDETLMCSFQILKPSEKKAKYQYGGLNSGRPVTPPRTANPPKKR

Sequence of pp11_schpo dis2 (P13681 whole entry): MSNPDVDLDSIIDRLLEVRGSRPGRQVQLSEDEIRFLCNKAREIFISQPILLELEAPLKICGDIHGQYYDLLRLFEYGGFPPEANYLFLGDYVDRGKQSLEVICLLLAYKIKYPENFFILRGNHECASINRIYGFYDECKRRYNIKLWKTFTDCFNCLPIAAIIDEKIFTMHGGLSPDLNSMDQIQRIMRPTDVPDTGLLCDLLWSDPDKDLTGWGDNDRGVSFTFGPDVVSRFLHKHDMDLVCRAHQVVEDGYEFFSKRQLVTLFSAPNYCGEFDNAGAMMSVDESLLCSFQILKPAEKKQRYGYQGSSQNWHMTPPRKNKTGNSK
Sequence of Serine/threonine-protein phosphatase 2A 56 kDa regulatory subunit delta 1 isoform (Schizosaccharomyces pombe (strain ATCC 38366 / 972)), Q10428 G367V (Q10428 whole entry G367V, canonical isoform): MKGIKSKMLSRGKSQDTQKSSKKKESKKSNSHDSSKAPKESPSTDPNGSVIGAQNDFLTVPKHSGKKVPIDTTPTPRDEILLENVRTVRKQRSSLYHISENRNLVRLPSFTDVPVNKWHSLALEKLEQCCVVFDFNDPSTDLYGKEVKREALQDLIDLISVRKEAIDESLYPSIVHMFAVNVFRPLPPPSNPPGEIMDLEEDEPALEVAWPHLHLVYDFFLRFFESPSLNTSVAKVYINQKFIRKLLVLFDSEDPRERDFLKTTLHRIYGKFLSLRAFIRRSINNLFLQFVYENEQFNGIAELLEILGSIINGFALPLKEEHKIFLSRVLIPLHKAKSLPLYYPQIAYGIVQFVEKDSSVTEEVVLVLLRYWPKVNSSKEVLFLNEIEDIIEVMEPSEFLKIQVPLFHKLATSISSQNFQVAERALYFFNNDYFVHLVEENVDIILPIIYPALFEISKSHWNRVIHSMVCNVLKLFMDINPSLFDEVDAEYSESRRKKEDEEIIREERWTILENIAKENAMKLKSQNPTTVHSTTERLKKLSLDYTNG
Sequence of Serine/threonine-protein phosphatase 2A 56 kDa regulatory subunit delta 1 isoform (Schizosaccharomyces pombe (strain ATCC 38366 / 972)), Q10428 G367A (Q10428 whole entry G367A, canonical isoform): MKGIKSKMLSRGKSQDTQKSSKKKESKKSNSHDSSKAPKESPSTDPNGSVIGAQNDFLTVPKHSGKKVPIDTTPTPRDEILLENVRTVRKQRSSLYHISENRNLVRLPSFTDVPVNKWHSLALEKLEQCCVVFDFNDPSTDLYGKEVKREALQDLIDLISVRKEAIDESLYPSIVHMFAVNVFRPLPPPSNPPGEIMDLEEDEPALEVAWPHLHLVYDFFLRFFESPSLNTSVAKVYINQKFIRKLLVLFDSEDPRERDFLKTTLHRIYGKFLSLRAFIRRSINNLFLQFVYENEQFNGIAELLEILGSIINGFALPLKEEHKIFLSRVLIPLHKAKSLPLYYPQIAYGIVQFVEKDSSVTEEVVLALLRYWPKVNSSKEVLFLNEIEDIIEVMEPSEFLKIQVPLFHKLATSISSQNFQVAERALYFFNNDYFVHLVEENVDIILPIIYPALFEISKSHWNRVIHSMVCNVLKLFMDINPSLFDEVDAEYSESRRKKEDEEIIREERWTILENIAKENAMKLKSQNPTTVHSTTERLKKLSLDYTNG
Sequence of Serine/threonine-protein phosphatase 2A 56 kDa regulatory subunit delta 1 isoform (Schizosaccharomyces pombe (strain ATCC 38366 / 972)), Q10428 G367A;V381A (Q10428 whole entry G367A/V381A, canonical isoform): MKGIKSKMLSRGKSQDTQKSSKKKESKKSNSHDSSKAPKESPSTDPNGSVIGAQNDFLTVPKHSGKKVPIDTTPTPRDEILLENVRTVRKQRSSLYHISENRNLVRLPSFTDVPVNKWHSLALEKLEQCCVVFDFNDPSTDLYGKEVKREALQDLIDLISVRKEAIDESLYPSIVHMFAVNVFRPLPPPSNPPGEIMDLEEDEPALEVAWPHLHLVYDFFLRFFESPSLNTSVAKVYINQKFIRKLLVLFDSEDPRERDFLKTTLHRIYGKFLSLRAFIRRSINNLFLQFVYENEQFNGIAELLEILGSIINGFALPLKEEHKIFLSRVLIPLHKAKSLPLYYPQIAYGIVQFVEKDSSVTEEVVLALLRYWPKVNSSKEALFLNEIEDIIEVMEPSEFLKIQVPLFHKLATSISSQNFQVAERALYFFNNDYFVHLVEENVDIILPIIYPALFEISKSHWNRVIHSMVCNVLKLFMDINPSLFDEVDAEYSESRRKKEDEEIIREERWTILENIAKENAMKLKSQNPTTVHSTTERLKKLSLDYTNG
Sequence of Serine/threonine-protein phosphatase 2A 56 kDa regulatory subunit delta 1 isoform (Schizosaccharomyces pombe (strain ATCC 38366 / 972)), Q10428 K379A;V381A;F383A (Q10428 whole entry K379A/V381A/F383A, canonical isoform): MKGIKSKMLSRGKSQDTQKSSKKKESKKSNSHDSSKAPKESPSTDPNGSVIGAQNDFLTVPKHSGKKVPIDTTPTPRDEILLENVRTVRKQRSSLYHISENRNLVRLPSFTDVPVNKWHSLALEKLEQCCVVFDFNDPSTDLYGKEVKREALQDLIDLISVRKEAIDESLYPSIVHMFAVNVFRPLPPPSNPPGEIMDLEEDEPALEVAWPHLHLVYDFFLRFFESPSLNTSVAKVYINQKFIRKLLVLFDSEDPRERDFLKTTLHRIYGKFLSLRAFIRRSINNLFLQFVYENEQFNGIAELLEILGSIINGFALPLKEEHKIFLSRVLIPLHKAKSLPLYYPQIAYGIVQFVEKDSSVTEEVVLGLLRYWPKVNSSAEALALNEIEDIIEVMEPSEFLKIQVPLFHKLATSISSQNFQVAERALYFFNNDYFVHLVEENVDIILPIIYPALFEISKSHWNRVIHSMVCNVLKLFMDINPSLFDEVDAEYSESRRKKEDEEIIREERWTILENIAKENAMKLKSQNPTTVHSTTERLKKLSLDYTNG
Sequence of pp1a_human PPP1CA (P62136 whole entry): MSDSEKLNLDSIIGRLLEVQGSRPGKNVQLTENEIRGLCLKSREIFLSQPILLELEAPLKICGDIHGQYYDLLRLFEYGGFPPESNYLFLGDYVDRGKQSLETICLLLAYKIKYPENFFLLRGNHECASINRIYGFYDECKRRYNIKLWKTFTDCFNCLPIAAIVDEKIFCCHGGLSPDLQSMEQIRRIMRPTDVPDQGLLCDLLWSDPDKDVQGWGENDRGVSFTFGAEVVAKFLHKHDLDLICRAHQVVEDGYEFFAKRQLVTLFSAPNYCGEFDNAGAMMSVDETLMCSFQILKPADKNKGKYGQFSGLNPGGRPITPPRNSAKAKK
Sequence of Serine/threonine-protein phosphatase 2A 56 kDa regulatory subunit delta 1 isoform (Schizosaccharomyces pombe (strain ATCC 38366 / 972)), Q10428 G367V;V381A (Q10428 whole entry G367V/V381A, canonical isoform): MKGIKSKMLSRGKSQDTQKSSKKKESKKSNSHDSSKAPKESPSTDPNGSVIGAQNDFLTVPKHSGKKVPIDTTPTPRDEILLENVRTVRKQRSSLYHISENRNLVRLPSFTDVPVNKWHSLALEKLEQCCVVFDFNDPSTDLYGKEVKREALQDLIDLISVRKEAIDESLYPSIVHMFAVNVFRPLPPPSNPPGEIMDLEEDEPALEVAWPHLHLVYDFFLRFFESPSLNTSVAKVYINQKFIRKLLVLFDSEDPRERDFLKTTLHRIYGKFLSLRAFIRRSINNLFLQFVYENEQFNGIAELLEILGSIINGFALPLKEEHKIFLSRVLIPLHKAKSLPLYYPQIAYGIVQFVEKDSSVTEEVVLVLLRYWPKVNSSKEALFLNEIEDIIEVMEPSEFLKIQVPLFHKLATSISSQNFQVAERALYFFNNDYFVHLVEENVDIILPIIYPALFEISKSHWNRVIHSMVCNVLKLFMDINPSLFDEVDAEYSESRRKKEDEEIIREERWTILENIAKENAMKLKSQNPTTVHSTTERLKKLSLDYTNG
Sequence of Serine/threonine-protein phosphatase 2A 56 kDa regulatory subunit delta 1 isoform (Schizosaccharomyces pombe (strain ATCC 38366 / 972)), Q10428 S378D (Q10428 whole entry S378D, canonical isoform): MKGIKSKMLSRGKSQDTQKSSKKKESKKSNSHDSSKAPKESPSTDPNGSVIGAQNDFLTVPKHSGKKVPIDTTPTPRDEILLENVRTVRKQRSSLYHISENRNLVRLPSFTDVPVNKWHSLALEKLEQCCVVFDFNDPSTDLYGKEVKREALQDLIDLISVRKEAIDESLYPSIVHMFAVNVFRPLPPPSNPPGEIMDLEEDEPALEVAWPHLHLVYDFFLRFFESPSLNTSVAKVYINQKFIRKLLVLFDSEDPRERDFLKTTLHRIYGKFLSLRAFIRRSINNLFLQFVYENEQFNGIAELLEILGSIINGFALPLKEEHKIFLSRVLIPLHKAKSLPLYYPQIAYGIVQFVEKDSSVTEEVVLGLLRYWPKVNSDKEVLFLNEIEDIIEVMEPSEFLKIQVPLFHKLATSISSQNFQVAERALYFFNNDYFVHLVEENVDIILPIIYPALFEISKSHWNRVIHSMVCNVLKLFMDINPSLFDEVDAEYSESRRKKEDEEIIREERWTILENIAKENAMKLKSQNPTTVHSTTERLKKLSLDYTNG
Sequence of Serine/threonine-protein phosphatase 2A 56 kDa regulatory subunit delta 1 isoform (Schizosaccharomyces pombe (strain ATCC 38366 / 972)), Q10428 G367V;K379A;V381A;F383A (Q10428 whole entry G367V/K379A/V381A/F383A, canonical isoform): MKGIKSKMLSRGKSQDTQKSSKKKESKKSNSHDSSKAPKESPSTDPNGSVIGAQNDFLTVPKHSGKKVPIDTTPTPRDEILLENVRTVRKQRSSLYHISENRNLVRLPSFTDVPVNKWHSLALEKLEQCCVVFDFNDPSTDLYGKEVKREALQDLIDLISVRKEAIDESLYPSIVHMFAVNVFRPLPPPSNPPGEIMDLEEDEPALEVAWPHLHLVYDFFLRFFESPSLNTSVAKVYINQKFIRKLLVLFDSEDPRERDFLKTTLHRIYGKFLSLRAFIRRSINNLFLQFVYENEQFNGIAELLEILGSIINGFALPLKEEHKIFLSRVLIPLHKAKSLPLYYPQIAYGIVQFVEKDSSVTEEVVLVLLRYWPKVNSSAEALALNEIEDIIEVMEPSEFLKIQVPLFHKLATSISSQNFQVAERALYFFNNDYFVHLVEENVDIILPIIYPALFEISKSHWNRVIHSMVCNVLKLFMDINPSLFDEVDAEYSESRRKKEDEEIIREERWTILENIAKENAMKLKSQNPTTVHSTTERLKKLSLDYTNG

| Substance | effect of a mutation on the interaction (pp11_schpo dis2 [1]) | effect of a mutation on the interaction (pp11_schpo dis2 [2]) | also measured |
| --- | --- | --- | --- |
| Serine/threonine-protein phosphatase 2A 56 kDa regulatory subunit delta 1 isoform (Schizosaccharomyces pombe (strain ATCC 38366 / 972)), Q10428 G367V | disrupting interaction strength | decreasing interaction strength | – |
| Serine/threonine-protein phosphatase 2A 56 kDa regulatory subunit delta 1 isoform (Schizosaccharomyces pombe (strain ATCC 38366 / 972)), Q10428 G367V;K379A;V381A;F383A | – | disrupting interaction strength | – |
| Serine/threonine-protein phosphatase 2A 56 kDa regulatory subunit delta 1 isoform (Schizosaccharomyces pombe (strain ATCC 38366 / 972)), Q10428 K379A;V381A;F383A | disrupting interaction strength | decreasing interaction strength | – |
| Serine/threonine-protein phosphatase 2A 56 kDa regulatory subunit delta 1 isoform (Schizosaccharomyces pombe (strain ATCC 38366 / 972)), Q10428 S378D | – | disrupting interaction strength | – |
| Serine/threonine-protein phosphatase 2A 56 kDa regulatory subunit gamma isoform (Homo sapiens) (from UniProt Q13362) L289A;L290A;V302A;F304A | – | – | effect of a mutation on the interaction (pp1g_human PPP1CC): disrupting interaction strength; effect of a mutation on the interaction (pp1a_human PPP1CA): disrupting interaction strength; effect of a mutation on the interaction (pp1b_human PPP1CB): disrupting interaction strength |

Further lines, with some results ahead:

| effect of a mutation on the interaction (pp11_schpo dis2 [1]) | effect of a mutation on the interaction (pp11_schpo dis2 [2]) | Substance | also measured |
| --- | --- | --- | --- |
| disrupting interaction strength | decreasing interaction strength | Serine/threonine-protein phosphatase 2A 56 kDa regulatory subunit delta 1 isoform (Schizosaccharomyces pombe (strain ATCC 38366 / 972)), Q10428 G367A | – |
| – | disrupting interaction strength | Serine/threonine-protein phosphatase 2A 56 kDa regulatory subunit delta 1 isoform (Schizosaccharomyces pombe (strain ATCC 38366 / 972)), Q10428 G367A;K379A;V381A;F383A | – |
| disrupting interaction strength | decreasing interaction strength | Serine/threonine-protein phosphatase 2A 56 kDa regulatory subunit delta 1 isoform (Schizosaccharomyces pombe (strain ATCC 38366 / 972)), Q10428 G367A;V381A | – |
| – | decreasing interaction strength | Serine/threonine-protein phosphatase 2A 56 kDa regulatory subunit delta 1 isoform (Schizosaccharomyces pombe (strain ATCC 38366 / 972)), Q10428 G367V;V381A | – |
